Reference: patent US20240076389A1 (NATIONAL RESEARCH COUNCIL OF CANADA, published 2024)

T1: human AXL expressed on the cell surface of tumor cell lines (human, UniProt P30530 26-894)
T1 construct: whole, on cells; also called cell surface-expressed AXL; cell-based AXL
T1 sequence (looked up): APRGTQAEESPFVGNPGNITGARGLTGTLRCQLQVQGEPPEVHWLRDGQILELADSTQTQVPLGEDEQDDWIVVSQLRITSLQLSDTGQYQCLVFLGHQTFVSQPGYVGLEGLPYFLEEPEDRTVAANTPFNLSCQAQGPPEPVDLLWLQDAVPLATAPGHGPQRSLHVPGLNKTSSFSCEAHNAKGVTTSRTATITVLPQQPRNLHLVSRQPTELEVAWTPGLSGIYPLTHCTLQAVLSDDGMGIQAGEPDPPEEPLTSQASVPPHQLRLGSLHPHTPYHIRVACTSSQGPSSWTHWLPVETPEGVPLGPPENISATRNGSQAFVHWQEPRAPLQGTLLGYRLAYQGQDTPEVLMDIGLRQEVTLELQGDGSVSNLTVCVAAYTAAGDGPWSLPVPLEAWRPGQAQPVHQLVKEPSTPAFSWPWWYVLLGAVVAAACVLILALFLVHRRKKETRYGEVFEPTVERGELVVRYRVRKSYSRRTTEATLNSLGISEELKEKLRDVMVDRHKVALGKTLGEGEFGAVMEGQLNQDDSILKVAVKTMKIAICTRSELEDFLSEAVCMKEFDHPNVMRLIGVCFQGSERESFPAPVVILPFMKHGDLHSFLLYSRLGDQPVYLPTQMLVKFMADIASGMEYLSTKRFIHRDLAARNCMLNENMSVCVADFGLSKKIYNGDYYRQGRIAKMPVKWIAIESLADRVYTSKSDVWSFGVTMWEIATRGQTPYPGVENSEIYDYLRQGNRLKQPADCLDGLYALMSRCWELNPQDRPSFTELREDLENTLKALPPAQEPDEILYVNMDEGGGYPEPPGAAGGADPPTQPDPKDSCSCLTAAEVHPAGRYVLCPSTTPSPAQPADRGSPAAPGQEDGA

T2: recombinant human AXL extracellular domain, C-terminally His8-tagged (rhAXL-ECD) (human, UniProt P30530 26-451)
T2 construct: Made in CHO cells; also called (rh)AXL-ECD His8; human AXL ECD
T2 sequence: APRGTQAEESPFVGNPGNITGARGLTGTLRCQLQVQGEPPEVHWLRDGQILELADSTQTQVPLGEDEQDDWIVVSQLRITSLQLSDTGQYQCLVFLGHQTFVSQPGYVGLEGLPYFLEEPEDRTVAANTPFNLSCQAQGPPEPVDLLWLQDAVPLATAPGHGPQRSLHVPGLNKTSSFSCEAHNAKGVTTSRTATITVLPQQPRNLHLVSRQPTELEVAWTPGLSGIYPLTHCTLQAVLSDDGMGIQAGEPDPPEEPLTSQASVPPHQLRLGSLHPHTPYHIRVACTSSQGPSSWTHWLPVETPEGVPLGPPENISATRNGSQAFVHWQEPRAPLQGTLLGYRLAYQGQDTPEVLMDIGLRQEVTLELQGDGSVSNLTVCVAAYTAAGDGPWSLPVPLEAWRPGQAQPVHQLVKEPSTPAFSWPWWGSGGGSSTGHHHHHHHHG


Key:
[1] = target: T1, human AXL expressed on the cell surface …; test: FACS on SKOV3 cells, apparent Kd, human Fc format
Method: FACS binding assay. Adherent cells were dissociated with non-enzymatic Sigma Cell Dissociation Solution (Cat. No. C5789). Cells suspensions were added to polypropylene, V-bottom 96-well plates and incubated for 2 hours on ice with primary antibodies at concentrations ranging from 100 nM to 0.001 nM or at a single dose of 100 nM (for the non-specific control). After incubation and washes, cells were incubated with fluorescently labeled secondary antibody (Alexa Fluor® 488 anti-human IgG from Jackson Cat. No 709-546-098) for 1 hour on ice, then washed. Cell viability was determined using Fixable viability dye 450 (20 min on ice). Stained cells were fixed in 1% formaldehyde at 4° C. and stored at 4° C. until acquisition which was performed the next day.
Binding of recombinant chimeric Abs to three cell lines was assessed by FACS as described above. The apparent Bmax and Kd determination is shown below in Table 14.

[2] = target: T2, recombinant human AXL extracellular …; test: ELISA on coated AXL ECD (100 ng/well), VHH-Fc, HRP-protein A
Method: ELISA. ELISAs against human, cyno and mouse AXL ECDs were conducted by immobilizing 100 ng of each protein in wells of Nunc MaxiSorp microplates overnight. Human AXL (aa 1-451) and cyno AXL (aa 1-449) were produced recombinantly as described in Example 10. Mouse AXL was purchased from Sino (cat. 51026-M08H). The next day, plates were blocked with 5% (w/v) dried milk in PBS. Murine mAbs (either hybridoma- or recombinantly-produced) or VHH-Fcs were diluted in PBS containing 1% BSA and 0.1% Tween-20 and added to wells for 2 hours at room temperature. Wells were washed 5× with PBS containing 0.1% Tween-20, then HRP-labeled protein A (diluted 1:1000 in PBS containing 1% BSA and 0.1% Tween™-20) was added to wells for 1 hour at room temperature. Wells were washed again 5× with PBS/0.1% Tween-20 and developed using TMB substrate. Absorbance was measured at 450 nm. As a positive control for mouse AXL binding, a commercial anti-mouse AXL mAb (clone 175128, R&D Systems MAB8541, rat IgG2A) was used and detected with donkey […] secondary antibody.

[3] = target: T2, recombinant human AXL extracellular …; test: SPR Biacore T200, mAb captured on anti-Fc, AXL ECD flowed, single-cycle kinetics
Method: (§1) Surface plasmon resonance. For murine mAbs, binding to human and cynomolgus AXL ECD was assessed using a Biacore T200 instrument. Briefly, either anti-mouse or anti-human Fc antibody was immobilized on a research-grade CM5 series S sensor chip using amine coupling in acetate buffer. Murine or recombinant chimeric murine-human mAbs (mouse VH/VL; human constant regions) were captured, then recombinant human or cyno AXL ECD was flowed over the surface at different concentration ranges (0.1-500 nM) depending on the antibody. The running buffer was PBS/Tween-20 and the flow rate 100 uL/min. All binding studies were performed at 25° C. Surfaces were regenerated using 10 mM glycine, pH 1.5.

[4] = target: T3, recombinant cynomolgus AXL extracellular domain (cynomolgus); test: as above
T3 construct: range 1-449; also called Cyno AXL; cyno AXL ECD
Method: as §1

[5] = target: T2, recombinant human AXL extracellular …; test: SPR Biacore T200, mAb captured on anti-Fc, AXL ECD flowed (footnote b printed in a row of footnote a)
Method: as §1

Row | Kd [1] [nM] | EC50 [2] [nM] | Kd [3] [nM] | kon [3] [M⁻¹ s⁻¹] | Kd [4] [nM] | koff [4] [s⁻¹] | kon [4] [M⁻¹ s⁻¹] | koff [5] [s⁻¹] | Binder
1 | 0.112 | 1 |  |  |  |  |  |  | NRC-sdAb001-Fc (VHH-human IgG1 Fc fusion) (Fc fusion, VHH fused N-terminally to human IgG1 Fc, made in HEK293 cells; also called NRC-sdAb0001-Fc; NRC-sdAb001-hIgG1; not shown: human IgG1 Fc) QVKLEESGGGLVQAGGSLRLSCTASASISSFDIMGWYRQAPGKQRELVAAITTLDIANYRDSVKGRFTISRDNAKNTVYLQMDSLKPEDTARYHCAAFQSDQNYWGQGTQVTVSS
2 |  |  | 0.5 | 1.1e+06 | 0.5 | 0.00043 | 820000 | 0.00059 | hFC-F107-10G1 (antibody, human IgG1, kappa, V domains shown, Chimeric mAb, human IgG1 / human kappa constant regions; also called mAb F107-10G1) VH: EVNLVESGGGVVKPGASLKLSCEASGFTFSNYGMSWVRQTSDKRLEWVASISGGGGRTYYLDNVKGRFIISRENAKNTLYLQMSSLKSEDTALFYCARGARASYFAMDYWGQGSSVTVSS VL: VIVMTQSHKFMSTSVGDRVSITCKASQDVTTAVAWYQQKPGQSPKLLIYWASTRHTGVPDRFTGSGSGTDYSLTISNVQTEDLAFYYCQQHFTTPLTFGAGTKLELKR
